Results as given in patent US20210246166A1 (Bayer, published 2021).
Bridge positions count the residues as written; N and C are the ends. Square brackets hold non-standard residues; d marks the D form. Ends that are not written are not given here. Oic = O=C(O)[C@@H]1C[C@@H]2CCCC[C@@H]2N1; tBuAla = CC(C)(C)C[C@H](N)C(=O)O; 2Pal = N[C@@H](Cc1ccccn1)C(=O)O; PEG4 = NCCOCCOCCOCCOCCC(=O)O; Pen = CC(C)(S)[C@H](N)C(=O)O; NMeC = CN[C@@H](CS)C(=O)O; NMeA = CN[C@@H](C)C(=O)O; Orn = NCCC[C@H](N)C(=O)O; Sar = CNCC(=O)O

B1: (2-Pal)-IC+SRS-((tBu)A)-PPI-(Pen)+IPD-NH2 (peptide)
peptide: [2Pal]ICSRS[tBuAla]PPI[Pen]IPD-NH2
modifications: disulfide 3-11; N-terminus assumed
SMILES: CC[C@H](C)[C@H](NC(=O)[C@@H](N)Cc1ccccn1)C(=O)N[C@H]1CSSC(C)(C)[C@@H](C(=O)N[C@H](C(=O)N2CCC[C@H]2C(=O)N[C@@H](CC(=O)O)C(N)=O)[C@@H](C)CC)NC(=O)[C@H]([C@@H](C)CC)NC(=O)[C@@H]2CCCN2C(=O)[C@@H]2CCCN2C(=O)[C@H](CC(C)(C)C)NC(=O)[C@H](CO)NC(=O)[C@H](CCCNC(=N)N)NC(=O)[C@H](CO)NC1=O
B2: ((N-Me)A)-IC+SRSLP-(Oic)-I-(Pen)+IPQ-OH (peptide)
peptide: [NMeA]ICSRSLP[Oic]I[Pen]IPQ-OH
modifications: disulfide 3-11; N-terminus assumed
SMILES: CC[C@H](C)[C@H](NC(=O)[C@H](C)NC)C(=O)N[C@H]1CSSC(C)(C)[C@@H](C(=O)N[C@H](C(=O)N2CCC[C@H]2C(=O)N[C@@H](CCC(N)=O)C(=O)O)[C@@H](C)CC)NC(=O)[C@H]([C@@H](C)CC)NC(=O)[C@@H]2C[C@@H]3CCCC[C@@H]3N2C(=O)[C@@H]2CCCN2C(=O)[C@H](CC(C)C)NC(=O)[C@H](CO)NC(=O)[C@H](CCCNC(=N)N)NC(=O)[C@H](CO)NC1=O
B3: ((N-Me)G)-IC+SRS-((tBu)A)-PPI-(Pen)+IP-(PEG3(16atoms))-NH2 (peptide)
peptide: [Sar]ICSRS[tBuAla]PPI[Pen]IP[PEG4]-NH2
modifications: disulfide 3-11; N-terminus assumed
SMILES: CC[C@H](C)[C@H](NC(=O)CNC)C(=O)N[C@H]1CSSC(C)(C)[C@@H](C(=O)N[C@H](C(=O)N2CCC[C@H]2C(=O)NCCOCCOCCOCCOCCC(N)=O)[C@@H](C)CC)NC(=O)[C@H]([C@@H](C)CC)NC(=O)[C@@H]2CCCN2C(=O)[C@@H]2CCCN2C(=O)[C@H](CC(C)(C)C)NC(=O)[C@H](CO)NC(=O)[C@H](CCCNC(=N)N)NC(=O)[C@H](CO)NC1=O
B4: ((N-Me)G)-IC+SRSLP-(Oic)-I-(Pen)+IPE-NH2 (peptide)
peptide: [Sar]ICSRSLP[Oic]I[Pen]IPE-NH2
modifications: disulfide 3-11; N-terminus assumed
SMILES: CC[C@H](C)[C@H](NC(=O)CNC)C(=O)N[C@H]1CSSC(C)(C)[C@@H](C(=O)N[C@H](C(=O)N2CCC[C@H]2C(=O)N[C@@H](CCC(=O)O)C(N)=O)[C@@H](C)CC)NC(=O)[C@H]([C@@H](C)CC)NC(=O)[C@@H]2C[C@@H]3CCCC[C@@H]3N2C(=O)[C@@H]2CCCN2C(=O)[C@H](CC(C)C)NC(=O)[C@H](CO)NC(=O)[C@H](CCCNC(=N)N)NC(=O)[C@H](CO)NC1=O
B5: AIC+SRSLP-(Oic)-I-((N-Me)C)+IPD-NH2 (peptide)
peptide: AICSRSLP[Oic]I[NMeC]IPD-NH2
modifications: disulfide 3-11; N-terminus assumed
SMILES: CC[C@H](C)[C@H](NC(=O)[C@H](C)N)C(=O)N[C@H]1CSSC[C@@H](C(=O)N[C@H](C(=O)N2CCC[C@H]2C(=O)N[C@@H](CC(=O)O)C(N)=O)[C@@H](C)CC)N(C)C(=O)[C@H]([C@@H](C)CC)NC(=O)[C@@H]2C[C@@H]3CCCC[C@@H]3N2C(=O)[C@@H]2CCCN2C(=O)[C@H](CC(C)C)NC(=O)[C@H](CO)NC(=O)[C@H](CCCNC(=N)N)NC(=O)[C@H](CO)NC1=O
B6: FIC+SRS-((tBu)A)-PPI-((N-Me)C)+I-NH2 (peptide)
peptide: FICSRS[tBuAla]PPI[NMeC]I-NH2
modifications: disulfide 3-11; N-terminus assumed
SMILES: CC[C@H](C)[C@H](NC(=O)[C@@H]1CSSC[C@H](NC(=O)[C@@H](NC(=O)[C@@H](N)Cc2ccccc2)[C@@H](C)CC)C(=O)N[C@@H](CO)C(=O)N[C@@H](CCCNC(=N)N)C(=O)N[C@@H](CO)C(=O)N[C@@H](CC(C)(C)C)C(=O)N2CCC[C@H]2C(=O)N2CCC[C@H]2C(=O)N[C@@H]([C@@H](C)CC)C(=O)N1C)C(N)=O
B7: (Orn)-IC+SRS-((tBu)A)-PPIC+I-NH2 (peptide)
peptide: [Orn]ICSRS[tBuAla]PPICI-NH2
modifications: disulfide 3-11; N-terminus assumed
SMILES: CC[C@H](C)[C@H](NC(=O)[C@@H]1CSSC[C@H](NC(=O)[C@@H](NC(=O)[C@@H](N)CCCN)[C@@H](C)CC)C(=O)N[C@@H](CO)C(=O)N[C@@H](CCCNC(=N)N)C(=O)N[C@@H](CO)C(=O)N[C@@H](CC(C)(C)C)C(=O)N2CCC[C@H]2C(=O)N2CCC[C@H]2C(=O)N[C@@H]([C@@H](C)CC)C(=O)N1)C(N)=O
B8: aIC+SRSLP-(Oic)-I-(Pen)+IPQ-OH (peptide)
peptide: [dA]ICSRSLP[Oic]I[Pen]IPQ-OH
modifications: disulfide 3-11; N-terminus assumed
SMILES: CC[C@H](C)[C@H](NC(=O)[C@@H](C)N)C(=O)N[C@H]1CSSC(C)(C)[C@@H](C(=O)N[C@H](C(=O)N2CCC[C@H]2C(=O)N[C@@H](CCC(N)=O)C(=O)O)[C@@H](C)CC)NC(=O)[C@H]([C@@H](C)CC)NC(=O)[C@@H]2C[C@@H]3CCCC[C@@H]3N2C(=O)[C@@H]2CCCN2C(=O)[C@H](CC(C)C)NC(=O)[C@H](CO)NC(=O)[C@H](CCCNC(=N)N)NC(=O)[C@H](CO)NC1=O
B9: YIC+SRS-((tBu)A)-PPI-((N-Me)C)+I-NH2 (peptide)
peptide: YICSRS[tBuAla]PPI[NMeC]I-NH2
modifications: disulfide 3-11; N-terminus assumed
SMILES: CC[C@H](C)[C@H](NC(=O)[C@@H]1CSSC[C@H](NC(=O)[C@@H](NC(=O)[C@@H](N)Cc2ccc(O)cc2)[C@@H](C)CC)C(=O)N[C@@H](CO)C(=O)N[C@@H](CCCNC(=N)N)C(=O)N[C@@H](CO)C(=O)N[C@@H](CC(C)(C)C)C(=O)N2CCC[C@H]2C(=O)N2CCC[C@H]2C(=O)N[C@@H]([C@@H](C)CC)C(=O)N1C)C(N)=O
B10: aIC+SRSLP-(Oic)-I-(Pen)+IP-OH (peptide)
peptide: [dA]ICSRSLP[Oic]I[Pen]IP-OH
modifications: disulfide 3-11; N-terminus assumed
SMILES: CC[C@H](C)[C@H](NC(=O)[C@@H](C)N)C(=O)N[C@H]1CSSC(C)(C)[C@@H](C(=O)N[C@H](C(=O)N2CCC[C@H]2C(=O)O)[C@@H](C)CC)NC(=O)[C@H]([C@@H](C)CC)NC(=O)[C@@H]2C[C@@H]3CCCC[C@@H]3N2C(=O)[C@@H]2CCCN2C(=O)[C@H](CC(C)C)NC(=O)[C@H](CO)NC(=O)[C@H](CCCNC(=N)N)NC(=O)[C@H](CO)NC1=O
B11: ((N-Me)G)-IC+SRSLP-(Oic)-I-(Pen)+I-OH (peptide)
peptide: [Sar]ICSRSLP[Oic]I[Pen]I-OH
modifications: disulfide 3-11; N-terminus assumed
SMILES: CC[C@H](C)[C@H](NC(=O)[C@H]1NC(=O)[C@H]([C@@H](C)CC)NC(=O)[C@@H]2C[C@@H]3CCCC[C@@H]3N2C(=O)[C@@H]2CCCN2C(=O)[C@H](CC(C)C)NC(=O)[C@H](CO)NC(=O)[C@H](CCCNC(=N)N)NC(=O)[C@H](CO)NC(=O)[C@@H](NC(=O)[C@@H](NC(=O)CNC)[C@@H](C)CC)CSSC1(C)C)C(=O)O
B12: ((N-Me)G)-IC+SRSLP-(Oic)-I-(Pen)+IPE-NH2 (peptide)
peptide: [Sar]ICSRSLP[Oic]I[Pen]IPE-NH2
modifications: disulfide 3-11; N-terminus assumed
SMILES: CC[C@H](C)[C@H](NC(=O)CNC)C(=O)N[C@H]1CSSC(C)(C)[C@@H](C(=O)N[C@H](C(=O)N2CCC[C@H]2C(=O)N[C@@H](CCC(=O)O)C(N)=O)[C@@H](C)CC)NC(=O)[C@H]([C@@H](C)CC)NC(=O)[C@@H]2C[C@@H]3CCCC[C@@H]3N2C(=O)[C@@H]2CCCN2C(=O)[C@H](CC(C)C)NC(=O)[C@H](CO)NC(=O)[C@H](CCCNC(=N)N)NC(=O)[C@H](CO)NC1=O
B13: AIC+SRS-((tBu)A)-P-(Oic)-I-((N-Me)C)+I-OH (peptide)
peptide: AICSRS[tBuAla]P[Oic]I[NMeC]I-OH
modifications: disulfide 3-11; N-terminus assumed
SMILES: CC[C@H](C)[C@H](NC(=O)[C@@H]1CSSC[C@H](NC(=O)[C@@H](NC(=O)[C@H](C)N)[C@@H](C)CC)C(=O)N[C@@H](CO)C(=O)N[C@@H](CCCNC(=N)N)C(=O)N[C@@H](CO)C(=O)N[C@@H](CC(C)(C)C)C(=O)N2CCC[C@H]2C(=O)N2[C@@H](C[C@@H]3CCCC[C@@H]32)C(=O)N[C@@H]([C@@H](C)CC)C(=O)N1C)C(=O)O

Assays:
[1] = target: T1, Recombinant human MASP1 enzyme (fragment corresponding to amino acids 297-699, C-terminal His Tag) (human, UniProt P48740 297-699); experiment: cell-based or functional assay
T1 sequence: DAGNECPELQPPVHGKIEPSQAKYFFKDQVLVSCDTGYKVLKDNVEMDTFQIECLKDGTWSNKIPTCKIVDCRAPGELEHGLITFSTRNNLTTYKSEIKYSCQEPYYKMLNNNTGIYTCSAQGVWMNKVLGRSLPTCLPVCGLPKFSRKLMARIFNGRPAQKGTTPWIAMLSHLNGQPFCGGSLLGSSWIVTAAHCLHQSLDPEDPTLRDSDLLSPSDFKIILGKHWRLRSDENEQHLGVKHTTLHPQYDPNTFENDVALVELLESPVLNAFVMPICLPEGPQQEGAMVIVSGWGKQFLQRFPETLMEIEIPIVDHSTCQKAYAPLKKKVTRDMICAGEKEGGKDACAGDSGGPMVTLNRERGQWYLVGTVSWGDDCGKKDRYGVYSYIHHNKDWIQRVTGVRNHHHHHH

[2] = target: Recombinant human MASP2 enzyme (fragment corresponding to amino acids 297-686, C-terminal His Tag) (human, UniProt O00187 297-686); experiment: cell-based or functional assay
Chain of Recombinant human MASP2 enzyme (fragment corresponding to amino acids 297-686, C-terminal His Tag) (O00187 other isoform, or with tags, fused parts or gaps limits assumed): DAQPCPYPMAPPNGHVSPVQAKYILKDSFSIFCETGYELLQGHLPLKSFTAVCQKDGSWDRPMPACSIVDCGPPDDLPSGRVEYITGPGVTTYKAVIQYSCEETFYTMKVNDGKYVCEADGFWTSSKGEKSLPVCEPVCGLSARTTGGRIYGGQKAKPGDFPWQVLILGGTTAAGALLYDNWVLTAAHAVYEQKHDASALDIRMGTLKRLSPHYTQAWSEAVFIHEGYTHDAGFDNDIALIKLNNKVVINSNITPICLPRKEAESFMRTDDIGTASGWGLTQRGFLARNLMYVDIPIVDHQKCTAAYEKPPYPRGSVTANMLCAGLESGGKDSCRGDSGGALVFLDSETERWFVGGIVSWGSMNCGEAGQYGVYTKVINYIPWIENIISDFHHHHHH

| Binder | human MASP1 IC50 [1] [nM] | human MASP2 IC50 [2] [nM] |
| --- | --- | --- |
| AICSRS[tBuAla]P[(2S,3aS,6aS)‑Octahydrocyclopenta(b)pyrrole‑2‑carboxylic acid]I[NMeC]IPD-NH2 (disulfide 3-11) | 4.4 | 240 |
| B1 | 4.4 | 68 |
| B2 | 4.4 | 170 |
| B3 | 4.35 | 65.5 |
| B4 | 5 | 200 |
| B5 | 4.8 | 245 |
| B6 | 4.5 | 170 |
| B7 | 4.8 | 170 |
| B8 | 4.9 | 140 |
| B9 | 4.5 | 68 |
| B10 | 4.9 | 200 |
| B11 | 4.9 | 550 |
| B12 | 4.3 | 200 |
| [(2S)‑2((Amino)-2-(tetrahydro-2H-pyran-4-yl))acetic acid]ICSRSLP[Oic]ICI-OH (disulfide 3-11) [((2S)-2[(Amino)-2-(tetrahydro-2H-pyran-4-yl)]acetic acid)-IC+SRSLP-(Oic)-IC+I-OH] | 4.7 | 200 |
| B13 | 4.4 | 850 |
| AICSRS[tBuAla]PP[(2S)‑2‑(Amino)‑2‑((1S,3S)-3-hydroxycyclohexyl)acetic acid][NMeC]IPD-NH2 (disulfide 3-11) [AIC+SRS-((tBu)A)-PP-((2S)-2-(Amino)-2-[(1S,3S)-3-hydroxycyclohexyl]acetic acid)-((N-Me)C)+IPD-NH2] | 4.7 | 1100 |
